Measured values reported in patent US20240239902A1.

Target: NKG2D on effector cells (NK cells, MNC) (human) (UniProt P26718)
Test: cell-based or functional assay

Chain of UniProt P26718 (P26718 whole entry): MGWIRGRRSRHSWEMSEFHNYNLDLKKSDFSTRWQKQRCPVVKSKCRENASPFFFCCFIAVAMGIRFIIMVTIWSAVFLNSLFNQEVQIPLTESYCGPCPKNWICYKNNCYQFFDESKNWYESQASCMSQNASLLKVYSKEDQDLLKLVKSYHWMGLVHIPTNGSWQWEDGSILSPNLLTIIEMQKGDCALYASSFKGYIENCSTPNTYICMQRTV

B1: bispecific antibody [CD20×NKG2D #3] (bispecific antibody, part only; not given: constant regions, Fab-scFv linker, tags, not shown: another chain or arm of the molecule; a dimerising Fc or GST; small tags and cut ends)
VH: QVQLQQPGAELVKPGASVKMSCKASGYTFTSYNMHWVKQTPGRGLEWIGAIYPGNGDTSYNQKFKGKATLTADKSSSTAYMQLSSLTSEDSAVYYCARSTYYGGDWYFNVWGAGTTVTVSS
VL: QIVLSQSPAILSASPGEKVTMTCRASSSVSYIHWFQQKPGSSPKPWIYATSNLASGVPVRFSGSGSGTSYSLTISRVEAEDAATYYCQQWTSNPPTFGGGTKLEIK
scFv: QVQLVQSGAEVKKPGASVKVSCKASGYTFTSYGISWVRQAPGQGLEWMGGIIPIFGTANYAQKFQGRVTITADESTSTAYMELSSLRSEDTAVYYCAKDLYDYVWGSYRPNWYFDLWGRGTLVTVSSGSASAPKLEEGEFSEARVSSELTQDPAVSVALGQTVRITCQGDSLRGYYASWYQQKPGQAPVLVTYGNNKRPSGIPDRFSGSSSGNTASLTITGTQAEDEADYYCNSRDNNGNFVIFGGGTKLTVL
maximum lysis, CD19-DE mediated ADCC against GRANTA-519 with MNC, in combination with the bsAb (4 h 51Cr release): 24.5%
